According to US8969034B2, “Endoglycosidases that cleave O-linked glycans” (New England Biolabs, Inc., priority 2008, dated 2015):

Tests used:
[1] = test system: Bifidobacterium longum endo-α-GalNAcase EngBF, SEQ ID NO:5; details: Core 1 substrate; data from Fujita et al. (2005); cited from earlier work
[2] = biological target: Propionibacterium acnes endo-α-GalNAcase EngPA (YP_056270.1), SEQ ID NO:3 (Cutibacterium acnes, UniProt A0ABM7H013); assay: Steady-state enzyme kinetics of EngPA; details: EngPA compared with EngEF
[3] = test system: CC(=O)N[C@H]1[C@@H](Oc2ccc([N+](=O)[O-])cc2)O[C@H](CO)[C@H](O)[C@@H]1O[C@@H]1O[C@H](CO)[C@H](O)[C@H](O)[C@H]1O; assay: purified protein, by the assay type; details: 25.0 °C
[4] = Hydrolysis of pNP substrates, colorimetric assay (Core 1); assay type: biochemical; details: Galβ1,3GalNAcα1pNP Core 1, 0.25 mM substrate, 25° C., 16 h, 405 nm
[5] = Hydrolysis of pNP substrates, colorimetric assay (Core 2); assay type: biochemical; details: Galβ1,3(GlcNAcβ1,6)GalNAcα1pNP Core 2, 25° C., 16 h, 405 nm
[6] = Hydrolysis of pNP substrates, colorimetric assay (Core 3); assay type: biochemical
[7] = Hydrolysis of pNP substrates, colorimetric assay (Galβ1,3GlcNAc); assay type: biochemical
[8] = Hydrolysis of pNP substrates, colorimetric assay (GalNAc); assay type: biochemical; details: GalNAcα1pNP, 25° C., 16 h, 405 nm
[9] = Transglycosylation to 1-alkanols, Core 3 donor (TLC); assay type: biochemical; details: 0.8 mM GlcNAcβ1,3GalNAcα1ρNP donor, 1-alkanols as acceptors, room temperature, 16 h
Source text: The transglycosylation activity can be similarly determined for EngAA*.

[10] = test system: CC(=O)N[C@H]1[C@H](O[C@H]2[C@@H](O)[C@@H](CO)O[C@H](Oc3ccc([N+](=O)[O-])cc3)[C@@H]2NC(C)=O)O[C@H](CO)[C@@H](O)[C@@H]1O; assay: purified protein, by the assay type; details: other: Core 3 substrate, 25° C., average of three measurements

Molecule: CC(=O)N[C@H]1[C@@H](Oc2ccc([N+](=O)[O-])cc2)O[C@H](CO)[C@H](O)[C@@H]1O[C@@H]1O[C@H](CO)[C@H](O)[C@H](O)[C@H]1O [Galβ1,3GalNAcα1ρNP]
- Km [1]: 21.8 µM
- kcat [1]: 17.8 s⁻¹
- kcat, times lower than EngEF ([2]; Core 1 substrate): about 25 times

Molecule: CC(=O)N[C@H]1[C@H](O[C@H]2[C@@H](O)[C@@H](CO)O[C@H](Oc3ccc([N+](=O)[O-])cc3)[C@@H]2NC(C)=O)O[C@H](CO)[C@@H](O)[C@@H]1O [GlcNAcβ1,3GalNAcα1ρNP]
- kcat, times higher than EngEF ([2]; Core 3 substrate): 3 times

Molecule: Clostridium perfringens endo-α-GalNAcase EngCP (YP_695137.1), SEQ ID NO:6 (Clostridium perfringens ATCC 13124)
- Km [3]: 70.93 µM
- kcat [3]: 19.9 s⁻¹

Molecule: EngSP: endo-α-GalNAcase from Streptococcus pneumoniae, purchased from Roche [reference compound]
- % product released [4]: 100%
- % product released [5]: 0.6%
- % product released [6]: 3%
- % product released [7]: 0%
- % product released [8]: 1.2%
- transglycosylation products [9]: no significant difference

Molecule: Enterococcus faecalis endo-α-GalNAcase EngEF (NP_815498.1), SEQ ID NO:2 (Enterococcus faecalis V583)
- kcat [10]: 9.43 s⁻¹

Molecule: Propionibacterium acnes endo-α-GalNAcase EngPA (YP_056270.1), SEQ ID NO:3 (Cutibacterium acnes subsp. acnes)
- kcat [10]: 28.9 s⁻¹

B1: EngEF: recombinant endo-α-GalNAcase (O-glycosidase) of Enterococcus faecalis (protein, listed as Enterococcus faecalis)
chain: MKHGKIKRFSTLTLLASATILVPLSTSAEETTNSSTETSSSMVEPTATEEKLWQSDFPGGKTGEWQDVIGKTNRELAGESLAISRDAAAGNNAVSLNLDSPKLADGEVETKFKYTAGSGRTGVIIRGNTKDSWVFVGYNANGKWLVESPNSWNDSISGPTLNEDTNYLLKVRYVGEKITIWLNTTLIYEGEPVLANGDKIPTEAGHVGVRLWYDKKIVNYDYFKNGPVDSIPEIVPEVTQIAPVKVFTKIGVAPKLPKQVKVTYNTGKEANEAVRWNEIDPDAYKEPGTFEVDGTLENTNIKAKASIVVAKDNEAEKGDKISSADLTAVVDPQFPRIIRYEDPQSNQVIFNGQHEKIDQVMIDGKAYKATAEKQKSEANQAVYNVAVPEIGLRFTTTLTVSEGQELAMKLSDIREEGTKIHTISIPNQGLISVNSTDEGATFAGVVMNTGTNANNGNKNGDTIQDLTTTSQEETKKYMYGFLNTANYAASFWTNAYGDGSVDGSDNNRIHKQTKEAATGFVTTLSSGAWTYRPFDAPEDYTTGETPEVKVKFSKDSNDDNRVDWQDAAIGFRSIMNNPMGAEKVPELVNQRIPFNFASQATNPFLVTLDESKRIYNLTDGLGQMNLLKGYQNEGHDSAHPDYGAIGQRPGGEQALNQLIDEGHKLNAVFGVHINDTESYPEAKGFNEELVDPTKRGWDWLDPSYFIKQRPDTLSGRRYERFKELKQKAPNLDYIYVDVWGNQGESGWASRQLSKEINSLGWFTTNEFPNALEYDSVWNHWSAEKDYGGTTTKGFNSTIVRFIRNHQKDTWIISDNPLLGGAEFEAYEGWVGKTNFNTYRQKTFAINVPTKFLQHYQITNWETTTAADGQIYGTIKLANGAEKVTVTQADANSPRSITLNETEVLKGDAYLLPWNVNGQDKLYHWNPKGGTSTWSLDKKMQGKTNLHLYELTDQGRIDKGAIATTNNQVTIQAEANTPYVIAEPDSIEPMTFGTGTPFKDPGFNEANTLKNNWKVFRGDGEVKKDANGDYVFSSEKERTEIKQDINLPKPGKYSLYLNTETHDRKATVTVKIGGKKYTRTVNNSVAQNYIQADINHTSRKNPQYMQNMRIDFEIPDNAKKGSVTLAVDKGNSVTKFDDLRIVERQTDIMNPDKQTVIKQDFEDTQAVGLYPFVKGSAGGVEDPRIHLSERNEPYTQYGWNGNLVSDVLEGNWSLKAHKQGAGLMLQTIPQNIKFEPNKKYTVQFDYQTDGENVFTAGTINGELKNNNDFKPVGELTSTAADGQTKHYEAEIIGDASGNTTFGIFTTGADKDFIMDNFTVTVESKK
- % product released [4]: 100%
- % product released [5]: 2%
- % product released [6]: 100%
- hydrolysis of the Core 3 disaccharide (in words) [6]: fully hydrolyzing
- % product released [7]: 0%
- % product released [8]: 2.2%
- transglycosylation products [9]: no significant difference

B2: EngPA: recombinant endo-α-GalNAcase of Propionibacterium acnes (protein)
chain: MSRTPRGRSIGALAVSAGTMLALIAPTAPAHAETRYRQINQAAITAVAADSATATDPISNTLDGNPDTIWHTTWQNGKDPLPHWIVFKLGDEAVNLGKVEITPRSSSNGSGRMHDYELYTANTKTCNNAAFSSAKPVATGSYGASDTSIRKITFAATKATCVKVKVNSSWGGDGSDEEVSSMAEFNAFTVDGSDPSPDPTPSEPPTPEVPKDAISLSDGTVTVRARRDFPQVIDYTVGHAHMAGRIGSPLTKVRINGADHVATVSAPTTTGSSASWKLTFRDLPGVELTADIKVSDGVMTWSIPHIVDTPDHRVNTVSVPGLTLASVTSTDPKAQLSSANIVVDRNKTGDLFQPLATADVSQDTSWVAMANDSTLAAGFEDNATQDGLVGSAATVARFVHSISQVGGTKVGAIEPATWVHRGKGSATPFPTDSLGNKAVCQLPGGATVKDGIGPDPDTPYVRVKIVADANADGKVDWQDAAVATRDVTMKPTGSGDVANKVITHIPFNIVSQATHPFLRTLDDVKRISLATDGLGQQALLKGYQAEGHDSAHPDYGGNVSHRAGGMKDLEKLTESGRQWNTDFGIHVNLVESYPEANHFGDNILVKPYQKAWDWMEQSYRMDYAKDLGSGQLFARLNQLRKELGAKSNLDWLYFDTNYPAGWQNDRIANALNAEGWRIGSEWSSTYPRYNQWSHWANDENYGTGNKGYSSRIIRFIDNSRRDTWNPDPILGNSNVVEYEGWTSHNDYNAFIANVWQRNLPTKFLQRSDIMSWQDGRIAFANGAVATSSKKSISGHEIPTARTITFDGATVFKEGGSYLLPWSNGGSDRLYYWNPGNGSATWKLTNSWAAQKSVSLFMLTDTGRVKVAEIPVTNRSIRIPATKAKTAYVLYPTSKVPAAKTPNWGEGSHFANPGFYSGDTAGWNARGNVSVKHNDRGNFHLEFGKAQSQISQVLNLPAGDHSLWAWVQIDPTKTRPVGLAVDGTGVTPIDHQKGCGGHAESVITSTTAINATASDEYFGTYHQRLRVAFHSDGRPVTVTLKALAGNAIVSADDFRVVDAAVPSDPHVTPATVLFQNFEDVDTGYWPFVTGSAGMEGDARTQLSRRHEPYTQKGWNGRAMDSVLSGDWSLKMHEERNGIVLRTTTASAPLTGGGTRYRISFDYQADKPGYSFVTGHDKVSGKSVKEVITESHAMGVATSTTHFSTDIVVKDQPAWIGFTHQGEGDMSIDNLRIEKLDPRPISVTSTQAAVFPDACKPTPEPIQPAQPSASAPTTSGSPQAPGTGNRPNRYALPRTGADGAGLGFSSSEAASATAAVGVSRQGR
modifications: Propionibacterium acnes
- % product released [4]: 100%
- % product released [5]: 0%
- % product released [6]: 100%
- hydrolysis of the Core 3 disaccharide (in words) [6]: fully hydrolyzing
- % product released [7]: 0%
- % product released [8]: 1.8%
- transglycosylation products [9]: no significant difference
